Two molecules from US20190367619A1 (ARGENX, published 2019) can be followed below.

Positions count from the first letter of the chain named. Where two headings read alike, the source gives them in different places. Where only a bound is given, the exact number is not on record here.

The target of assay [1] is T1, cynomolgus galectin-10-His, WGS isoform (cynomolgus).
T1 construct: also called cynoGal10-WGS; not shown: His tag
T1 chain: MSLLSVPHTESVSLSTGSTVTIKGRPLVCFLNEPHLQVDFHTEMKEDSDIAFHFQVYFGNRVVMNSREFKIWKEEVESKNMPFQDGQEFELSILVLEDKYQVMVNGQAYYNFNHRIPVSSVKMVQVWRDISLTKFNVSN
Put plainly: binding ELISA (summary table). How it is done:
(§1) In a similar setup to that used during the initial screening, the relative binding properties of the 11 new scFv-human Fc clones were analyzed by ELISA. Briefly, a Maxisorp plate was coated overnight with human or cynomolgus WGS or YRT isoforms of galectin-10-His at 0.2 μg/mL and blocked with PBS 1% casein, before being incubated with a serial dilution of the scFv-human Fc fusion molecules (from 100 nM, dilution 1/5, 8 points of dilutions). After several washing steps, detection of the bound scFv-human Fc was carried out with an anti-human Fc-HRP antibody (Jackson ImmunoResearch, Catalog 109-035-008). Absorbance was measured at 450 nm (reference at 620 nm) with Tecan instrument. Finally, the raw data (OD values) were plotted on GraphPad Prism 7.01. The EC50 values of each clone, calculated with a non-linear regression (log(agonist) vs. response Variable slope (four parameters)) are reported in Table 19 below. As a positive control, clone 6F05 from the previous galectin-10 antibody panel was included.
On the technique in general: In an ELISA, binding on a coated surface is turned into a signal by an enzyme label.

Assay [2] concerns the target T2, cynomolgus galectin-10-His, YRT isoform (cynomolgus).
T2 construct: also called cynoGal10-YRT; not shown: His tag
T2 chain: T1 chain with K23E, G24A, L31F, F69Y, K70R, I71T, S92R
The experiment in a line: binding ELISA (summary table). How it is done: as §1

Assay [3] deals with T3, human galectin-10-His (human).
T3 construct: The last M of the tag may be Met1 of galectin-10; also called humanGal10-His; hGal10
T3 chain: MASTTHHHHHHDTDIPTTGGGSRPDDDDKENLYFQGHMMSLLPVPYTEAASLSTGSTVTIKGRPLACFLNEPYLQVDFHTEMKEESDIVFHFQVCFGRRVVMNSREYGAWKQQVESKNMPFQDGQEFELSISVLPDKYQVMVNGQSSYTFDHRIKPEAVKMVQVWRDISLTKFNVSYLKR
The experiment in a line: binding ELISA (summary table). How it is done:
as §1

In assay [4] the target is T1, cynomolgus galectin-10-His, WGS isoform. Put plainly: ELISA, coated antigen 0.2 ug/mL. How it is done: as §1
The target in assay [5] is T2, cynomolgus galectin-10-His, YRT isoform. Put plainly: ELISA, coated antigen 0.2 ug/mL. The procedure: as §1
Assay [6] concerns the target T3, human galectin-10-His. Put plainly: ELISA, coated antigen 0.2 ug/mL. How it is done:
as §1

In assay [7] the target is T1, cynomolgus galectin-10-His, WGS isoform. The experiment in a line: SPR Biacore T3000, scFv-human Fc captured. How it is done: (§2) The binding properties of the scFv-human Fc panel to galectin-10 were analyzed on the Biacore T3000. For this purpose, a CM5 Chip was coated with polyclonal anti-human Fc at 8000 RU, then a fixed concentration of the scFv-human Fc panel (1.5 μg/mL) were captured to reach a binding signal around 150 RU. Finally, a serial dilution of human or cynomolgus WGS isoform of galectin-10-His (serial dilution, 1 over 2 from 5 μg/mL, 6 points of dilution) was injected. Raw data were analyzed via BIA evaluation software with a blank subtraction (4-3). Finally, the kd/KD and Rmax of each scFv-human Fc to galectin-10-His was determined using the Fit Kinetics simultaneous ka/kd/Binding with mass transfer/Local Rmax on BIA evaluation software.
For orientation: Surface plasmon resonance follows binding to a sensor surface in real time, without labels.

Assay [8] deals with T3, human galectin-10-His. Put plainly: SPR Biacore T3000, scFv-human Fc captured. The procedure: as §2
The target in assay [9] is T1, cynomolgus galectin-10-His, WGS isoform. The experiment in a line: SPR Biacore (summary table). How it is done: as §2
For assay [10], the target named is T3, human galectin-10-His. The experiment in a line: SPR Biacore (summary table). How it is done:
as §2

Assay [11] concerns the target T4, human galectin-10-His (recombinant human galectin-10 with TEV-cleavable N-terminal His-tag) (human).
T4 construct: SEC-MALLS: dimer in solution; also called Gal10-His; humanGal10-His
T4 chain: T3 chain
The experiment in a line: ELISA, mouse IgG1 on coated galectin-10-His (0.2 ug/mL). How it is done: In a similar setup to that used during the characterization of the scFv-human Fc molecules, the relative binding affinities of the 10 mouse IgG1 antibodies were analyzed by ELISA. A Maxisorp plate was coated overnight with 0.2 μg/mL of galectin-10-His. Then a serial dilution of each clone (from 100 nM, dilution 1/4, 12 points of dilutions) was incubated on coated galectin-10. After several washing steps, detection of the bound mouse IgG1 was carried out with an anti-mouse Fc-HRP antibody. Absorbance was measured at 450 nm (reference at 620 nm) with Tecan instrument. A mouse IgG1 isotype control was used as negative control. A polyclonal anti-galectin-10 antibody was used as positive control for the coating of galectin-10. The raw data (OD values) were plotted on GraphPad Prism 7.01. The EC50 values for each antibody, calculated with a non-linear regression (log(agonist) vs. response Variable slope (four parameters)), are reported in Table 7 below.

In assay [12] the target is T4, human galectin-10-His (recombinant …). Put plainly: BLI tandem on galectin-10-His; competitor: saturating 6F06 mIgG1 (10 ug/mL). The procedure: (§3) In order to identify the galectin-10 binding sites of the different clones, an epitope mapping method (TANDEM), using the BLI technology, was established. Briefly, the galectin-10-His was captured on anti-HIS 1K sensor tips, before incubation with an excess of one antibody (called the “saturating” antibody) then directly transferred to a solution containing the “competitor” antibody at a suboptimal concentration. If the “saturating” and the competitor antibody bind to the same binding sites, no binding of “competitor” will be detected (expressed in nm shift).

Assay [13] shares this target. Put plainly: BLI tandem on galectin-10-His; competitor: saturating 2C07 mIgG1 (10 ug/mL). The procedure: as §3
Assay [14] concerns the target T5, TEV-cleaved wild-type recombinant human galectin-10 (soluble, in Fab complexes, or as recombinant galectin-10 … (human, UniProt Q05315 1-142)).
T5 sequence: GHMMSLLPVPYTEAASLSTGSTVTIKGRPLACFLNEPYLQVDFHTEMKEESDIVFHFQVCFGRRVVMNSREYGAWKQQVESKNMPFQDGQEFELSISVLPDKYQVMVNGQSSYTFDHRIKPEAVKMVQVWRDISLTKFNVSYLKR
The experiment in a line: cell-based or functional assay.

Assay [15] addresses T4, human galectin-10-His (recombinant …). The experiment in a line: BLI tandem on galectin-10-His; competitor: saturating 4E08 mIgG1 (10 ug/mL). How it is done:
as §3

The target of assay [16] is T5, TEV-cleaved wild-type recombinant human …. Put plainly: cell-based or functional assay. The source holds these as a separate data set.
In assay [17] the target is T4, human galectin-10-His (recombinant …). Put plainly: BLI tandem on galectin-10-His; isotype control as saturating antibody (10 ug/mL). How it is done: as §3
Assay [18] has the same target. The experiment in a line: BLI tandem on galectin-10-His; competitor: saturating 6A05 mIgG1 (10 ug/mL). How it is done:
as §3

Assay [19] has the same target. The experiment in a line: BLI tandem on galectin-10-His; competitor: saturating 6B06 mIgG1 (10 ug/mL). The procedure: as §3
The target is the same in assay [20]. The experiment in a line: Biacore capture approach (summary table), mouse IgG1. The procedure:
(§4) The binding capacity of the mouse IgG1 antibodies to galectin-10 was analyzed on Biacore T3000. For this purpose, a capture approach was set up. A CM5 Chip was coated with polyclonal anti-mouse Fc at 8000 RU, then a fixed concentration of the mouse IgG1 antibody panel (1.5 μg/mL), diluted in HBS-EP pH7.4, was captured to reach a binding signal around 150 RU. Finally, a serial dilution of galectin-10-His (serial dilution, 1 over 2 from 5 μg/mL) diluted in HBS-EP pH7.4 was injected. Raw data were analyzed via BIA evaluation software with a blank subtraction (4-3). The kd/KD and Rmax of each mAb to galectin-10-His was determined using the Fit Kinetics simultaneous ka/kd/Binding with mass transfer/Local Rmax on BIA evaluation software.

The target is the same in assay [21]. Put plainly: BLI tandem on galectin-10-His; competitor: saturating 6E10 mIgG1 (10 ug/mL). The procedure: as §3
The target is the same in assay [22]. Put plainly: BLI tandem on galectin-10-His; competitor: saturating 1D11 mIgG1 (10 ug/mL). The procedure: as §3
Assay [23] has the same target. The experiment in a line: BLI tandem on galectin-10-His; competitor: saturating 6A08 mIgG1 (10 ug/mL). The procedure:
as §3

Assay [24] has as its target T5, TEV-cleaved wild-type recombinant human …. The experiment in a line: cell-based or functional assay. The source holds these as a separate data set.
The target of assay [25] is T4, human galectin-10-His (recombinant …). Put plainly: BLI tandem on galectin-10-His; competitor: saturating 2F09 mIgG1 (10 ug/mL). The procedure: as §3
Assay [26] has the same target. The experiment in a line: SPR Biacore T3000, mouse IgG1 captured by anti-mouse Fc, galectin-10-His as analyte. How it is done:
as §4

The target is the same in assay [27]. Put plainly: ELISA binding (summary table), mouse IgG1.
Assay [28] shares this target. The experiment in a line: BLI tandem on galectin-10-His; competitor: saturating 1C09 mIgG1 (10 ug/mL). How it is done:
as §3

B1: 10D02 scFv-human Fc (Fc fusion)
scFv: EVQLVESGGGLVQPGGSLRVSCAASGFTFSSYYMSWVRQAPGKGLEWVSGIVTGGGRTHYTDSVKGRFTITRDNAKNTLYLQMNSLRPEDTALYYCARVNGVVTNYDYWGQGTQVTVSSGGGGSGGGGSGGGGSQAVLTQPPSVSGSPGKTVTISCAGTSSDVGYGNYVSWYQQLPGMAPKLLIYDVNKRASGITDRFSGSKSGNTASLTISGLQSEDEADYFCASYRSPNNVVFGQGTHLTVL
notes: also called 010D02; not shown: CH2-CH3 constant domains of human IgG1 (pUPEX50 scFv-Fc fusion vector)
What is called EC50 is the concentration giving half of the maximal effect. What is called Kd is the free concentration of one partner at which half of the binding sites on the other are occupied at equilibrium, for simple one-to-one binding. As a reminder, the koff is the rate constant with which the complex falls apart. As a reminder, the kon is the second-order rate constant of association. As to B1, the concentration for a half-maximal effect (EC50) in assay [1] was found to be 1.12 nM; in assay [2], 1.4 nM; in [3], 0.56 nM; in assay [4], 1.12 nM; in assay [5] it was 1.4 nM; in assay [6], 0.56 nM. Moreover, the figures for the Bmax in assay [4], in [5] and in assay [6] were 3.1 OD, 2 OD and 1.9 OD, respectively. The Kd amounted to 2.7 nM in assay [7], 2 nM in [8], 2.7 nM in assay [9] and 2 nM in [10]. In addition, the koff came out at 0.00122 s⁻¹ in assay [7], 0.00066 s⁻¹ in [8], 0.00122 s⁻¹ in assay [9] and 0.00066 s⁻¹ in assay [10]. In addition, the kon was determined as 450000 M⁻¹ s⁻¹ in assay [7], 340000 M⁻¹ s⁻¹ in assay [8], 450000 M⁻¹ s⁻¹ in assay [9] and 340000 M⁻¹ s⁻¹ in [10].

B2: 1C09 mouse IgG1 (antibody, V domains shown)
VH: QVQLVESGPGLVKPSQTLSLTCTVSGGSITTNSYYWSWIRQPPGKGLEWMGAIAYSGSTYYSPSLKSRTSISRDTSKNQFTLHLSSVTPEDTAVYYCARRPNWYRALDAWGQGTLVTVSS
VL: NFMLTQPSAVSVSLGQTARITCQGANLGRYYGIWYQQKPGQAPVQVIYGDSNRPSGIPERFSGSSSGGTATLTISGAQAEDEADYYCQSYESSTSPVFGGGTHLTVL
notes: VH on mouse IgG1 heavy chain constant domains (CH1-CH2-CH3), VL on mouse lambda light chain constant domain; also called 1C09 mIgG1
B2: the Bmax in [11] was 2.3 OD. For the same molecule, the 50% effective concentration (EC50) in [11] and in [27] was 0.13 nM each time. Moreover, the “binding signal (nm)” value stood at 0.04 nm in [12]; 0.03 nm in [13]; 0.08 nm in [15]; 1.21 nm in assay [17]; 0.09 nm in assay [18]; 0.02 nm in [19]. In addition, the “binding signal (nm)” value in assay [21] is 0.02 nm; in assay [22] it was 0.1 nm; in assay [23] it was 0.04 nm; in assay [25], 0.02 nm; in assay [28], 0.03 nm. Besides, the “100% Solubilization of CLC (Conc uM)” value in [14] and in [24] was 10.5 µM each time. Further, the “dissolution of in vitro grown Gal10 crystals (spinning disk confocal microscopy)” value in [16] was at most 90 min. Besides, the dissociation constant (Kd) in [20] and in assay [26] was 0.5 nM throughout. Besides, the off-rate constant (koff) in assay [20] and in assay [26] was 0.00529 s⁻¹ each time. Also, the “100% Inhibition of CLC formation (Conc uM)” value in [24] came to 0.82 µM.
